According to the supplement of paper PMC11780869:

System: Bacillus subtilis
Test: cleaved RNA product abundance (RNA/gDNA barcode ratio) relative to median wild-type variant (ratio to wild type); higher = more accumulation of the downstream cleavage product
Conditions: cleavage site: cggR-gapA (positions -7 to +36 mutated)
Method in brief: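 Cleaved product abundance was measured with barcoded reporter mRNAs (truncated aprE or tetM) carrying mutagenized RNase Y cleavage-site windows in the B. subtilis chromosome. Cultures in LB at 37°C grew from OD600 0.0003 to 0.3. Gel-selected cleaved RNA was reverse transcribed and barcode-sequenced with genomic DNA barcodes, and the RNA:gDNA barcode ratio per construct was scaled to the median construct bearing the unmutated site.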

[1] = experiment (reporter, strain, medium): exp 2b: truncated aprE reporter, strain BJT200
[2] = experiment (reporter, strain, medium): exp 4a: truncated aprE reporter, strain BJT201 with 2% xylose (RNase J1 expressed)

Row | Sequence | cleaved RNA product abundance [1] | cleaved RNA product abundance [2] | cleaved RNA product abundance (experiment (reporter, strain, medium): exp 6: tetM reporter, strain 168)
1 | ACAGACGAAGGAGCCGCAAGGAAGTTATTAATGGATGAATAATCCCTCAATATAAATATCTCTCACTTATTTAAA | 0.144 | 0.162 | –
2 | ACAGACGAAGGAGCCGCAAGGTAGTTATTAAGGGATGAATAATCCCTCAATATAAATATCTCTCACTTATTTAAA | – | 1 | –
3 | ACAGACGAAGGAGCCGCAATAAAGTTATTAAGGGATGAATAATCCCTCAATATAAATATCTCTCACTTATTTAAA | 1.03 | 1.09 | –
4 | ACAGACGAAGGAGCCGCAATGAAATTATTAAGGGATGAATAATCCCTCAATATAAATATCTCTCACTTATTTAAA | 0.716 | 0.875 | –
5 | ACAGACGAAGGAGCCGCAATGAAATTATTAAGGGATTAATAATCCCTCAATATAAATATCTCTCACTTATTTAAA | – | 0.695 | –
6 | ACAGACGAAGGAGCCGCAATGAACTTATTAAGGGATGAATAATCCCTCAATATAAATATCTCTCACTTATTTAAA | – | 0.405 | –
7 | ACAGACGAAGGAGCCGCAATGAAGATATTAAGGCATGAATAATCCCTCAATATAAATATCTCTCACTTATTTAAA | – | 0.138 | –
8 | ACAGACGAAGGAGCCGCAATGAAGATATTAAGGGATGAATAATCCCTCAATATAAATATCTCTCACTTATTTAAA | – | 0.667 | –
9 | ACAGACGAAGGAGCCGCAATGAAGTAATTAAGGGATGAATAATCCCTCAATATAAATATCTCTCACTTATTTAAA | – | 0.364 | –
10 | ACAGACGAAGGAGCCGCAATGAAGTCATTAAGGGATGAATAATCCCTCAATATAAATATCTCTCACTTATTTAAA | 0.189 | – | –
11 | ACAGACGAAGGAGCCGCAATGAAGTTAATAAGGGATGAATAATCCTTCAATATAAATATCTCTCACTTATTTAAA | – | 0.263 | –
12 | ACAGACGAAGGAGCCGCAATGAAGTTACTAAGGGATGAATAATCCCTCAATATAAATATCTCTCACTTATTTAAA | – | 0.249 | –
13 | ACAGACGAAGGAGCCGCAATGAAGTTATCAAGGGATGAATAATCCCTCAATATAAATATCTCTCACTTATTTAAA | – | 0.487 | –
14 | ACAGACGAAGGAGCCGCAATGAAGTTATTAAAGGATGAATAATCCCTCAATATAAATATCTCTCACTTATTTAAA | 0.181 | 0.181 | –
15 | ACAGACGAAGGAGCCGCAATGAAGTTATTAACGGATGAATAATCCCTCAATATAAATATCTCTCACTTATTTAAA | – | 0.145 | –
16 | ACAGACGAAGGAGCCGCAATGAAGTTATTAAGAGATGAATAATCCCTCAATATAAATATCTCTCACTTATTTAAA | 0.131 | 0.204 | –
17 | ACAGACGAAGGAGCCGCAATGAAGTTATTAAGCGATGAATAATCCCTCAATATAAATATCTCTCACTTATTTAAA | 0.0928 | 0.108 | –
18 | ACAGACGAAGGAGCCGCAATGAAGTTATTAAGGAATGAATAATCCCTCAATATAAATATCTCTCACTTATTTAAA | 0.131 | 0.102 | –
19 | ACAGACGAAGGAGCCGCAATGAAGTTATTAAGGGAAGAATAATCCCTCAATATAAATATCTCTCACTTATTTAAA | 0.389 | 0.702 | –
20 | ACAGACGAAGGAGCCGCAATGAAGTTATTAAGGGATAAATAATCCCTCAATATAAATATCTCTCACTTATTTAAA | – | 0.659 | –
21 | ACAGACGAAGGAGCCGCAATGAAGTTATTAAGGGATGAAAAATCCCTCAATATAAATATCTCTCACTTATTTAAA | – | 0.548 | –
22 | ACAGACGAAGGAGCCGCAATGAAGTTATTAAGGGATGAATAAACCCTCAATATAAATATCTCTCACTTATTTAAA | 0.647 | 0.454 | –
23 | ACAGACGAAGGAGCCGCAATGAAGTTATTAAGGGATGAATAATACCTCAATATAAATATCTCTCACTTATTTAAA | – | 0.138 | –
24 | ACAGACGAAGGAGCCGCAATGAAGTTATTAAGGGATGAATAATCACTCAATATAAATATCTCTCACTTATTTAAA | 0.126 | 0.129 | –
25 | ACAGACGAAGGAGCCGCAATGAAGTTATTAAGGGATGAATAATCCATCAATATAAATATCTCTCACTTATTTAAA | – | 0.251 | –
26 | ACAGACGAAGGAGCCGCAATGAAGTTATTAAGGGATGAATAATCCCACAATATAAATATCTCTCACTTATTTAAA | – | 0.367 | –
27 | ACAGACGAAGGAGCCGCAATGAAGTTATTAAGGGATGAATAATCCCTAAATATAAATATCTCTCACTTATTTAAA | – | 0.792 | –

Row | Sequence | cleaved RNA product abundance [1] | cleaved RNA product abundance [2] | cleaved RNA product abundance (experiment (reporter, strain, medium): exp 6: tetM reporter, strain 168)
28 | ACAGACGAAGGAGCCGCAATGAAGTTATTAAGGGATGAATAATCCCTCAAAATAAATATCTCTCACTTATTTAAA | – | 0.355 | –
29 | ACAGACGAAGGAGCCGCAATGAAGTTATTAAGGGATGAATAATCCCTCAATATAAAAATCTCTCACTTATTTAAA | 0.872 | 1.03 | –
30 | ACAGACGAAGGAGCCGCAATGAAGTTATTAAGGGATGAATAATCCCTCAATATAAATATCTCTCACTTATTTAAA | 1.1 | 1.12 | 0.968
31 | ACAGACGAAGGAGCCGCAATGAAGTTATTAAGGGATGAATAATCCCTCAATATGAATATCTCTCACTTATTTAAA | – | 0.141 | –
32 | ACAGACGAAGGAGCCGCAATGAAGTTATTAAGGGATGAATAATCCCTCAATATTAATATCTCTCACTTATTTAAA | 0.226 | – | –
33 | ACAGACGAAGGAGCCGCAATGAAGTTATTAAGGGATGAATAATCCCTCTATATAAATATCTCTCACTTATTTAAA | – | 0.689 | –
34 | ACAGACGAAGGAGCCGCAATGAAGTTATTAAGGGATGAATAATCCCTGAATATAAATATCTCTCACTTATTTAAA | – | 0.713 | –
35 | ACAGACGAAGGAGCCGCAATGAAGTTATTAAGGGATGAATAATCCTTCAATATAAATATCTCTCACTTATTTAAA | – | 0.581 | –
36 | ACAGACGAAGGAGCCGCAATGAAGTTATTAAGGGATGAATAATCGCTCAATATAAATATCTCTCACTTATTTAAA | – | 0.0881 | –
37 | ACAGACGAAGGAGCCGCAATGAAGTTATTAAGGGATGAATAATCTCTCAATATAAATATCTCTCACTTATTTAAA | 0.942 | 0.845 | –
38 | ACAGACGAAGGAGCCGCAATGAAGTTATTAAGGGATGAATAATGCCTCAATATAAATATCTCTCACTTATTTAAA | 0.122 | – | –
39 | ACAGACGAAGGAGCCGCAATGAAGTTATTAAGGGATGAATAATTCCTCAATATAAATATCTCTCACTTATTTAAA | 0.505 | 0.517 | –
40 | ACAGACGAAGGAGCCGCAATGAAGTTATTAAGGGATGAATACTCCCTCAATATAAATATCTCTCACTTATTTAAA | 0.379 | – | –
41 | ACAGACGAAGGAGCCGCAATGAAGTTATTAAGGGATGAATATTCCCTCAATATAAATATCTCTCACTTATTTAAA | 0.573 | 0.519 | –
42 | ACAGACGAAGGAGCCGCAATGAAGTTATTAAGGGATGAATGATCCCTCAATATAAATATCTCTCACTTATTTAAA | – | 0.506 | –
43 | ACAGACGAAGGAGCCGCAATGAAGTTATTAAGGGATGTATAATCCCTCAATATAAATATCTCTCACTTATTTAAA | – | 1.53 | –
44 | ACAGACGAAGGAGCCGCAATGAAGTTATTAAGGGATGTATAATCCCTCAATTTAAATATCTCTCACTTATTTAAA | – | 0.25 | –
45 | ACAGACGAAGGAGCCGCAATGAAGTTATTAAGGGATTAATAATCCCTCAATATAAATATCTCTCACTTATTTAAA | 0.989 | 1.06 | –
46 | ACAGACGAAGGAGCCGCAATGAAGTTATTAAGGGCTGAATAATCCCTCAATATAAATATCTCTCACTTATTTAAA | 0.583 | 0.472 | –
47 | ACAGACGAAGGAGCCGCAATGAAGTTATTAAGGGTTGAATAATCCCTCAATATAAATATCTCTCACTTATTTAAA | 0.325 | – | –
48 | ACAGACGAAGGAGCCGCAATGAAGTTATTAAGGTATGAATAATCCCTCAATATAAATATCTCTCACTTATTTAAA | 0.109 | 0.146 | –
49 | ACAGACGAAGGAGCCGCAATGAAGTTATTAAGTGATGAATAATCCCTCAATATAAATATCTCTCACTTATTTAAA | 0.0987 | – | –
50 | ACAGACGAAGGAGCCGCAATGAAGTTATTAAGTGATGAATAATCCGTCAATATAAATATCTCTCACTTATTTAAA | – | 0.0953 | –
51 | ACAGACGAAGGAGCCGCAATGAAGTTATTAATGGATGAATAATCCCTCAATATAAATATCTCTCACTTATTTAAA | 0.126 | 0.202 | –
52 | ACAGACGAAGGAGCCGCAATGAAGTTATTATGGGATGAATAATCCCTCAATATAAATATCTCTCACTTATTTAAA | – | 0.464 | –
53 | ACAGACGAAGGAGCCGCAATGAAGTTATTTAGGGATGAATAATCCCTCAATATAAATATCTCTCACTTATTTAAA | – | 0.738 | –
54 | ACAGACGAAGGAGCCGCAATGAAGTTTTTAAGGGATGAATAATCCCTCAATATAAATATCTCTCACTTATTTAAA | – | 0.578 | –
